Tests used:
[1] = molecular target: T1, pH4.0-treated TTR (human, UniProt P02766 21-147); experiment: ELISA on pH4-treated TTR captured on an anti-His coated plate, anti-mouse HRP detection, OD450
[2] = molecular target: recombinant human TTR F87M/L110M (human, UniProt P02766 21-147); experiment: SPR, mAb captured on anti-mouse IgG chip, TTR F87M/L110M as analyte
[3] = molecular target: T1, pH4.0-treated TTR; experiment: ELISA, pH4-TTR captured on anti-His coated plate
[4] = molecular target: T1, pH4.0-treated TTR; experiment: Sandwich ELISA (pH4-TTR)

B1: mouse antibody 5A1 (antibody, IgG1, V domains shown)
VH: EVKLVESGGGLVRPGGSLKLSCAASGFTFSNYAMSWVRQTPEKRLEWVASISSGGSTYYPDSVKGRFTISRDNARNILYLQMSSLRSEDTAMYYCVRYYYGQYFDFWGQGTALTVSS
VL: DIVMTQSHKFMSTSVGDRVSITCKASQDVSTTVAWYRQKPGQSPELLIYSASYRCTGVPDRFTGSGSGADFTFTISSVQAEDLAVYYCQQHYSTPLTFGAGTKLELK
notes: also called m5A1; mis-TTR antibody 5A1
In the case of B1, the “EC50 (read off the curve)” value [1] is reported as about 0.3 µg/mL, the Kd [2] is reported as 7.68 nM and the koff [2] is reported as 0.000469 s⁻¹. For the same binder, the kon [2] was 61100 M⁻¹ s⁻¹, the Kd [3] was 23 nM and the Kd [4] was 21.3 nM.

— patent US20200277361A1 (PROTHENA BIOSCIENCES, published 2020)
